Read-outs that look alike come from different tables or passages of the source.
How the values were obtained:
EDIII-DV1 [1] = target: T1, EDIII-DV1 (Dengue virus serotype 1 (DV1), UniProt P17763 581-673); assay: SPR
T1 construct: also called EDIII of DV1; EDIII-DVI

EDIII-DV2 [2] = target: T2, EDIII-DV2 (Dengue virus serotype 2 (DV2), UniProt P14337 581-673); assay: SPR
T2 construct: also called EDIII of DV2; EDIII-DVII

EDIII-DV3 [3] = target: T3, EDIII-DV3 (Dengue virus serotype 3 (DV3), UniProt Q6YMS3 579-671); assay: SPR
T3 construct: also called EDIII of DV3; EDIII-DVIII

EDIII-DV1 [4] = target: T1, EDIII-DV1
EDIII-DV2 [5] = target: T2, EDIII-DV2
EDIII-DV3 [6] = target: T3, EDIII-DV3
EDIII-DV1 [7] = target: T1, EDIII-DV1; assay: SPR; remark: listed apart in the source
EDIII-DV2 [8] = target: T2, EDIII-DV2; assay: SPR; remark: listed apart in the source
EDIII-DV3 [9] = target: T3, EDIII-DV3; assay: SPR; remark: listed apart in the source
EDIII-DV1 [10] = target: T1, EDIII-DV1; assay: competition ELISA
EDIII-DV2 [11] = target: T2, EDIII-DV2; assay: competition ELISA
EDIII-DV3 [12] = target: T3, EDIII-DV3; assay: competition ELISA
[13] = target: DV2 (Dengue virus serotype 2, virus used in FRNT) (Dengue virus serotype 2 (DV2)); assay: cell-based or functional assay
[14] = target: DV3 (Dengue virus serotype 3, virus used in FRNT) (Dengue virus serotype 3 (DV3)); assay: cell-based or functional assay
[15] = target: DV1 (Dengue virus serotype 1, virus used in FRNT) (Dengue virus serotype 1 (DV1)); assay: cell-based or functional assay

B1: 4E11 WT (antibody, V domains shown)
VH: VKLLEQSGAELVKPGASVRLSCTASGFNIKDTYMSWVKQRPEQGLEWIGRIDPANGDTKYDPKFQGKATITADTSSNTAYLHLSSLTSGDTAVYYCSRGWEGFAYWGQGTLVTVSA
VL: ELVMTQTPASLAVSLGQRATISCRASENVDRYGNSFMHWYQQKAGQPPKLLIYRASNLESGIPARFSGSGSRTDFTLTINPVEADDVATYFCQRSNEVPWTFGGGTKLEIKR
notes: also called wt 4E11; mAb 4E11
- Kd (EDIII-DV1 [1]): 0.5 nM
- Kd (EDIII-DV2 [2]): 6.2 nM
- Kd (EDIII-DV3 [3]): 7.58 nM
- Kd (EDIII-DV1 [4]): 0.328 nM
- Kd (EDIII-DV2 [5]): 5.2 nM
- Kd (EDIII-DV3 [6]): 21.8 nM
- koff (EDIII-DV1 [7]): 0.000551 s⁻¹
- kon (EDIII-DV1 [7]): 1.11e+06 M⁻¹ s⁻¹
- kon (EDIII-DV2 [8]): 1.98e+06 M⁻¹ s⁻¹
- koff (EDIII-DV3 [9]): 0.0102 s⁻¹
- kon (EDIII-DV3 [9]): 1.34e+06 M⁻¹ s⁻¹
- Kd (EDIII-DV1 [10]): 0.328 nM
- Kd (EDIII-DV2 [11]): 5.2 nM
- Kd (EDIII-DV3 [12]): 21.8 nM
- IC50 (read off the curve): neutralisation, relative infectivity against [4E11] [13]: ~0.03 µg/mL
- IC50 (read off the curve): neutralisation, relative infectivity against [4E11] [14]: ~0.5 µg/mL
- IC50 (read off the curve): neutralisation, relative infectivity against [4E11] [15]: ~0.06 µg/mL

From patent US20200207841A1 (MIT, published 2020)
